The results in this text go back to paper PMC5412568 (The Journal of Cell Biology, 2017).

Like-named read-outs stand apart in the source and are kept apart here.

Data set [1] concerns the molecule itself. In words: protein-induced fluorescence enhancement.
Data set [2] has as its target cytoDATL (aa 1-415) K320G with super YFP at the C terminus (D. melanogaster, UniProt Q9VC57 1-415, K320G). In words: FRET or BRET. On the technique in general: BRET reads energy transfer from a luciferase to a nearby fluorophore.
Data set [3] deals with the molecule itself. As to the kind of experiment: protein-induced fluorescence enhancement. This is another data set of the same source.

B1: cytoDATL (aa 1-415) G343C, K320T (domain or fragment)
chain: MGGSAVQVINASEEHTFVLNEDALSEVLMRDEVKDRFVCVVSVAGAFRKGKSFLLDFFLRYMYSKYVHHDATDWLGGESDPLEGFSWRGGSERDTTGILMWSDIFLHDYPNGDKIAIILLDTQGAFDSQSTVRDCATVFALSTMLSSVQIYNLSQNIQEDDLQHLQLFTEYGRLALADTGKKPFQRLQFLVRDWSFPYEAEYGALGGDKILKRRLEVSDKQHPELQSLRRHISSCFTEVACFLMPHPGLNVATNPKFDGRLQDITPEFKSSLRSLVPMLLAPDNLVYKEISGQRVRARDLIQYFQSYMNIYKGNELPEPTSMLVATAEANHLTAVAAAKELYCQLMEEVCGGTRPYLSTAHLQTEHLRVKDKALFQFAAKRKMGGEEFTEKFRKQLEDDLEEVFTNYQAHNESKN
modifications: Cy3 maleimide on the engineered cysteine G343C in the PIFE assays; unlabelled in cross-linking
For the molecule B1, the binding result in data set [1] is recorded as “binds”.

B2: cytoDATL (aa 1-415) G343C, P317G (domain or fragment)
chain: MGGSAVQVINASEEHTFVLNEDALSEVLMRDEVKDRFVCVVSVAGAFRKGKSFLLDFFLRYMYSKYVHHDATDWLGGESDPLEGFSWRGGSERDTTGILMWSDIFLHDYPNGDKIAIILLDTQGAFDSQSTVRDCATVFALSTMLSSVQIYNLSQNIQEDDLQHLQLFTEYGRLALADTGKKPFQRLQFLVRDWSFPYEAEYGALGGDKILKRRLEVSDKQHPELQSLRRHISSCFTEVACFLMPHPGLNVATNPKFDGRLQDITPEFKSSLRSLVPMLLAPDNLVYKEISGQRVRARDLIQYFQSYMNIYKGNELGEPKSMLVATAEANHLTAVAAAKELYCQLMEEVCGGTRPYLSTAHLQTEHLRVKDKALFQFAAKRKMGGEEFTEKFRKQLEDDLEEVFTNYQAHNESKN
modifications: Cy3 maleimide on the engineered cysteine G343C in the PIFE assays; unlabelled in cross-linking
For B2, the binding result in data set [1] is “binds”.

B3: cytoDATL (aa 1-415) K320G with mCerulean3 at the C terminus (domain or fragment)
chain: MGGSAVQVINASEEHTFVLNEDALSEVLMRDEVKDRFVCVVSVAGAFRKGKSFLLDFFLRYMYSKYVHHDATDWLGGESDPLEGFSWRGGSERDTTGILMWSDIFLHDYPNGDKIAIILLDTQGAFDSQSTVRDCATVFALSTMLSSVQIYNLSQNIQEDDLQHLQLFTEYGRLALADTGKKPFQRLQFLVRDWSFPYEAEYGALGGDKILKRRLEVSDKQHPELQSLRRHISSCFTEVACFLMPHPGLNVATNPKFDGRLQDITPEFKSSLRSLVPMLLAPDNLVYKEISGQRVRARDLIQYFQSYMNIYKGNELPEPGSMLVATAEANHLTAVAAAKELYGQLMEEVCGGTRPYLSTAHLQTEHLRVKDKALFQFAAKRKMGGEEFTEKFRKQLEDDLEEVFTNYQAHNESKN
Consider B3, for which the binding result in data set [2] is “binds”.

B4: cytoDATL (aa 1-415) G343C, K320N (domain or fragment)
chain: MGGSAVQVINASEEHTFVLNEDALSEVLMRDEVKDRFVCVVSVAGAFRKGKSFLLDFFLRYMYSKYVHHDATDWLGGESDPLEGFSWRGGSERDTTGILMWSDIFLHDYPNGDKIAIILLDTQGAFDSQSTVRDCATVFALSTMLSSVQIYNLSQNIQEDDLQHLQLFTEYGRLALADTGKKPFQRLQFLVRDWSFPYEAEYGALGGDKILKRRLEVSDKQHPELQSLRRHISSCFTEVACFLMPHPGLNVATNPKFDGRLQDITPEFKSSLRSLVPMLLAPDNLVYKEISGQRVRARDLIQYFQSYMNIYKGNELPEPNSMLVATAEANHLTAVAAAKELYCQLMEEVCGGTRPYLSTAHLQTEHLRVKDKALFQFAAKRKMGGEEFTEKFRKQLEDDLEEVFTNYQAHNESKN
modifications: Cy3 maleimide on the engineered cysteine G343C in the PIFE assays; unlabelled in cross-linking
Consider B4, for which the binding result in data set [1] is given as “binds”.

B5: cytoDATL (aa 1-415) G343C, K320M (domain or fragment)
chain: MGGSAVQVINASEEHTFVLNEDALSEVLMRDEVKDRFVCVVSVAGAFRKGKSFLLDFFLRYMYSKYVHHDATDWLGGESDPLEGFSWRGGSERDTTGILMWSDIFLHDYPNGDKIAIILLDTQGAFDSQSTVRDCATVFALSTMLSSVQIYNLSQNIQEDDLQHLQLFTEYGRLALADTGKKPFQRLQFLVRDWSFPYEAEYGALGGDKILKRRLEVSDKQHPELQSLRRHISSCFTEVACFLMPHPGLNVATNPKFDGRLQDITPEFKSSLRSLVPMLLAPDNLVYKEISGQRVRARDLIQYFQSYMNIYKGNELPEPMSMLVATAEANHLTAVAAAKELYCQLMEEVCGGTRPYLSTAHLQTEHLRVKDKALFQFAAKRKMGGEEFTEKFRKQLEDDLEEVFTNYQAHNESKN
modifications: Cy3 maleimide on the engineered cysteine G343C in the PIFE assays; unlabelled in cross-linking
Turning to B5, the binding result in data set [1] is recorded as “binds”.

B6: cytoDATL (aa 1-415) G343C, K320G (domain or fragment)
chain: MGGSAVQVINASEEHTFVLNEDALSEVLMRDEVKDRFVCVVSVAGAFRKGKSFLLDFFLRYMYSKYVHHDATDWLGGESDPLEGFSWRGGSERDTTGILMWSDIFLHDYPNGDKIAIILLDTQGAFDSQSTVRDCATVFALSTMLSSVQIYNLSQNIQEDDLQHLQLFTEYGRLALADTGKKPFQRLQFLVRDWSFPYEAEYGALGGDKILKRRLEVSDKQHPELQSLRRHISSCFTEVACFLMPHPGLNVATNPKFDGRLQDITPEFKSSLRSLVPMLLAPDNLVYKEISGQRVRARDLIQYFQSYMNIYKGNELPEPGSMLVATAEANHLTAVAAAKELYCQLMEEVCGGTRPYLSTAHLQTEHLRVKDKALFQFAAKRKMGGEEFTEKFRKQLEDDLEEVFTNYQAHNESKN
modifications: Cy3 maleimide on the engineered cysteine G343C in the PIFE assays; unlabelled in cross-linking
On to B6, for which the binding result in data set [1] is reported as “binds”.

B7: cytoDATL (aa 1-415) G343C, K320E, E328R (domain or fragment)
chain: MGGSAVQVINASEEHTFVLNEDALSEVLMRDEVKDRFVCVVSVAGAFRKGKSFLLDFFLRYMYSKYVHHDATDWLGGESDPLEGFSWRGGSERDTTGILMWSDIFLHDYPNGDKIAIILLDTQGAFDSQSTVRDCATVFALSTMLSSVQIYNLSQNIQEDDLQHLQLFTEYGRLALADTGKKPFQRLQFLVRDWSFPYEAEYGALGGDKILKRRLEVSDKQHPELQSLRRHISSCFTEVACFLMPHPGLNVATNPKFDGRLQDITPEFKSSLRSLVPMLLAPDNLVYKEISGQRVRARDLIQYFQSYMNIYKGNELPEPESMLVATARANHLTAVAAAKELYCQLMEEVCGGTRPYLSTAHLQTEHLRVKDKALFQFAAKRKMGGEEFTEKFRKQLEDDLEEVFTNYQAHNESKN
modifications: Cy3 maleimide on the engineered cysteine G343C
Consider B7, for which, in data set [3], the binding result is listed as “binds”.
